Test results taken from PMC6658013 (PLoS Pathogens, 2019).

Target: T1, prefusion-stabilized RSV F (DS-Cav1), subtype B (strain B9320), with C-terminal His tag and Strep-tag II … (human respiratory syncytial virus B, …, UniProt Q6V2E7, stabilised)
T1 construct: copies: 3 + 3
Test: SPR
Settings: both partners purified

B1: RSD5-WT Fab (parental RSD5) (Fab, V domains shown)
VH: QVQLVESGGGVVQPGRPLRLSCAASGFAFNNFALHWVRQAPGKGPEWLAAVSYDGTSPYYAESVRARFSISRDNSKKTFYLQLDSLRPEDTAVYYCARGLGSGSYSWIGYFYAMDVWGRGTTVTVSS
VL: QSALTQPASVSGSPGQSITISCTGTSSDVGGYVYVAWYQQHPGTAPKLIIYDVSDRPSGVSNRFSGSKSGNTASLTISGLQAEDDADYYCISYTDRNTVVFGGGTKLTVL
binding result: binds
